# Source: patent US9540424B2, “Serum albumin binding molecules” (BRISTOL-MYERS SQUIBB COMPANY, priority 2010, dated 2017)
# Assays:
# [1] = Analytical size exclusion chromatography (SEC) of SABAs; format: physicochemical; details: midscaled material
# Method: Size exclusion chromatography (SEC) was performed on the SABAs resulting from the HTPP. SEC of HTPP derived material was performed using a Superdex 200 5/150 or Superdex 75 5/150 column (GE Healthcare) on an Agilent 1100 or 1200 HPLC system with UV detection at A214 nm and A280 nm and with fluorescence detection (excitation=280 nm, emission=350 nm). A buffer of 100 mM sodium sulfate, 100 mM sodium phosphate, 150 mM sodium chloride, pH 6.8 at appropriate flow rate of the SEC column employed. Gel filtration standards (Bio-Rad Laboratories, Hercules, Calif.) were used for molecular weight calibration.
# Midscale expression and purification yielded highly pure and active Adnectins™ that were expressed in a soluble form and purified from the soluble fraction of the bacterial cytosol.
# Standard size exclusion chromatography (SEC) was performed on the candidate SABAs resulting from the midscale process. SEC of midscaled material was performed using a Superdex 200 10/30 or on a Superdex 75 10/30 column (GE Healthcare) on an Agilent 1100 or 1200 HPLC system with UV detection at A214 nm and A280 nm and with fluorescence detection (excitation=280 nm, emission=350 nm). A buffer of 100 mM sodium sulfate, 100 mM sodium phosphate, 150 mM sodium chloride, pH 6.8 at appropriate flow rate of the SEC column employed. Gel filtration standards (Bio-Rad Laboratories, Hercules, Calif.) were used for molecular weight calibration.
# RhSA = RhSA (Macaca mulatta, UniProt Q28522); assay: Biacore kinetics of SABAs on immobilized serum albumin: RhSA; format: binding, rhesus; details: for Kd: target RhSA
# Method: (§1) In addition, binding to albumin was carried out under various pH conditions ranging from pH 5.5 to pH 7.4.
# MuSA = MuSA (Mus musculus, UniProt P07724); assay: Biacore kinetics of SABAs on immobilized serum albumin: MuSA; format: binding
# [2] = Half-life of HSA and of SABA1-4 with or without HSA in mice (ELISA, WinNonlin); format: in vivo, Ncr nude female mice; details: for PK (T½) Mice: co-injected with HSA (3-4 molar excess), tail vein; for half-life in mice plasma: injected without HSA; for increase in half life when co-injected with HSA: with HSA vs without HSA, mice
# Method: The pharmacokinetic parameters of each Adnectin™ were determined using non-compartmental modeling with WinNonlin software.
# HSA = HSA (Homo sapiens, UniProt P02768); details: for Resistant to pH 7.4→5.5?: binding to HSA from pH 7.4 down to pH 5.5, symbols not defined
# Method: as §1
# [3] = Pharmacokinetics of His-tagged FGF21 and SABA-FGF21 fusions in monkeys; format: in vivo, cynomolgus monkeys; details: monkeys
# Method: Various in vivo studies were conducted in mice and monkeys to characterize the pharmacokinetics of His-tagged FGF21 and SABA1-FGF21v1. An ELISA-based ligand binding assay was used to measure the His-tagged FGF21 and SABA1-FGF21v1 in all mouse and monkey plasma samples.
# Following subcutaneous administration, His-tagged FGF21 was well absorbed.
# Following subcutaneous administration, SABA1-FGF21v1 was well absorbed.
# Human serum albumin = molecular target: T1, Human serum albumin (Homo sapiens, UniProt P02768); assay: SPR (ProteOn XPR36) binding of SABA-neuropeptide fusions to Human Serum Albumin; details: 25° C., average of two experiments
# T1 construct: purchased Novozymes Recombumin
# Method: Surface Plasmon Resonance (SPR) is a direct binding technique by which molecular interactions can be observed in real time. For these experiments, SPR binding studies were performed using a ProteOn XPR36 instrument (BioRad Laboratories). The running buffer, phosphate buffered saline 0.05% Tween 20 pH 7.4, was purchased from Teknova (cat #P1192) and all experiments were run at 25° C. Human serum albumin was directly immobilized on a BioRad GLC chip via amine coupling as per manufacturer's guidelines using amine coupling reagents purchased from BioRad Laboratories. Human serum albumin was purchased from Novozymes (Recombumin™). About 5000 resonance units (RU) of human serum albumin were immobilized onto 4 separate lanes of the GLC chip surface. For each analyte, five concentrations ranging from 15.6 nM to 250 nM were injected over the surface at 30 μl/min for 240 seconds. The dissociation was monitored for 600 seconds. The surface was regenerated with 100 mM HCl. The resultant data were fitted to a Langumuir 1:1 binding model using the ProteOn Manager Software. The experiment was repeated with a different concentration range. In this second experiment, 5 concentrations ranging from 500 nM to 32 nM were injected over the surfaces, and the data analyzed as above. The KD is the disassociation constant. Smaller numbers indicate tighter binding to serum albumin. Molecules covalently attached to SABA that bind to serum albumin display longer in vivo pharmokinetic half-lives, as described earlier with respect to SABA-FGF-21 fusions.
# [4] = intravenous, His-tagged FGF21 0.5 mg/kg, SABA1-FGF21v1 0.08 mg/kg
# Sequence of RhSA (Q28522 17-600): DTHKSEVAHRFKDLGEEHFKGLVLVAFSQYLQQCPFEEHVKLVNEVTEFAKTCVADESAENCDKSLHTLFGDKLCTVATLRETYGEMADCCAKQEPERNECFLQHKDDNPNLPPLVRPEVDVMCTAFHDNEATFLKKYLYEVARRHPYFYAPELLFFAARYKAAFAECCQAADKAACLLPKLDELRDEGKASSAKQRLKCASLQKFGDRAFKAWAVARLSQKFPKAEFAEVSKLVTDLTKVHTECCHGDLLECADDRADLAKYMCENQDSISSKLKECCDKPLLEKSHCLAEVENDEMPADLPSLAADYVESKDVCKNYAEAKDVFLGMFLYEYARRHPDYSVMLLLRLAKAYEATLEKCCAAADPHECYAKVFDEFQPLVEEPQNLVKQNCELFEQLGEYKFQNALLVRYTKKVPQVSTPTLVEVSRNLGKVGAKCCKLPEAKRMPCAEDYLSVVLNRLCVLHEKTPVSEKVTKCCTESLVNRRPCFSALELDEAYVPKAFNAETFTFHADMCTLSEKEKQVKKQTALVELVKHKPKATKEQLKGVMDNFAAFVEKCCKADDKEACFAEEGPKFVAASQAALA
# Sequence of MuSA (P07724 25-608): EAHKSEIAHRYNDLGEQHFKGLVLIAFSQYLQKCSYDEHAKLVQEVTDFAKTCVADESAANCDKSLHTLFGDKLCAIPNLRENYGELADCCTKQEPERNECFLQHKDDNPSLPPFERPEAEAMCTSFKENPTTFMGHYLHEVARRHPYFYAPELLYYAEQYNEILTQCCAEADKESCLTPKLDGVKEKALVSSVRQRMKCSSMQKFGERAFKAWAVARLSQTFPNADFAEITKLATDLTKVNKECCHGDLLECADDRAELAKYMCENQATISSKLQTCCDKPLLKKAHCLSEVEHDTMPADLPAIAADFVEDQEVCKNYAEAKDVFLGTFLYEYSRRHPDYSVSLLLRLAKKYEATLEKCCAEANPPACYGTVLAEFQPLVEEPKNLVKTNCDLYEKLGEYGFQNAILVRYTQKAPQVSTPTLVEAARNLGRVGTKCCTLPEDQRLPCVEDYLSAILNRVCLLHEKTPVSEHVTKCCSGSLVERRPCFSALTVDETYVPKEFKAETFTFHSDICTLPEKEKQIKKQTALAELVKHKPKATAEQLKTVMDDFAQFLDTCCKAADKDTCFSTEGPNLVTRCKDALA
molecule,measurement,setting,value
"SABA2.1: His-tagged SABA2 sequence (protein, His6 tag) MGVSDVPRDLEVVAATPTSLLISWPKYDKTGHYYRITYGETGGNSPVQEFTVPTRQTTATISGLKPGVDYTITVYAVSKDDYYPHEHRPISINYRTEIDKPSQHHHHHH",SEC Dimer (%),[1],9%
same,SEC Monomer (%),[1],91%
same,cross reaction with RhSA,RhSA,cross reacted
same,cross reaction with MuSA,MuSA,did not cross react
same,PK (T½) Mice,[2],2.8 h
same,half-life in mice plasma,[2],14.4 min
same,increase in half life when co-injected with HSA,[2],~12 fold
same,Comments: binding in dependence of pH,HSA,Loss of binding at pH ≦6.5
"SABA4.1: HSA binding clone of SABA4 (protein, His6 tag) MGVSDVPRDLEMVAATPTSLLISWEDDSYYSRYYRITYGETGGNSPVQEFTVPSDLYTATISGLKPGVDYTITVYAVTYDVTDLIMHEPISINYRTEIDKPSQHHHHHH",Comments: binding affinity for RhSA,RhSA,Poor binding affinity for RhSA.
same,cross reaction with RhSA,RhSA,cross reacted
same,cross reaction with MuSA,MuSA,did not cross react
same,PK (T½) Mice,[2],4.6 h
same,half-life in mice plasma,[2],39.6 min
same,increase in half life when co-injected with HSA,[2],~7 fold
same,Comments: decrease in KD observed at pH <6.0,HSA; pH <6.0,>2-fold decrease in KD observed at
SABA2: SABA core sequence from PROfusion; in Table 5 stands for SABA2.1 (protein) EVVAATPTSLLISWPKYDKTGHYYRITYGETGGNSPVQEFTVPTRQTTATISGLKPGVDYTITVYAVSKDDYYPHEHRPISINYRT,Kd,RhSA,63.6 nM
same,Kd,HSA,33.8 nM
same,Resistant to pH 7.4→5.5?,HSA,pH sensitive
"SABA4: SABA core with a scaffold mutation; same BC, DE, FG loops as SABA5; in Table 5 stands for SABA4.1 (protein) EMVAATPTSLLISWEDDSYYSRYYRITYGETGGNSPVQEFTVPSDLYTATISGLKPGVDYTITVYAVTYDVTDLIMHEPISINYRT",Kd,RhSA,> 1000 nM
same,PK (T½) Mice,[2],4.6 h
same,Kd,HSA,412 nM
same,Resistant to pH 7.4→5.5?,HSA,pH sensitive
SABA3: SABA core sequence from PROfusion; in Table 5 stands for SABA3.1 (protein) EVVAATPTSLLISWSNDGPGLSYYRITYGETGGNSPVQEFTVPSSQTTATISGLKPGVDYTITVYAVSYYTKKAYSAGPISINYRT,Kd,RhSA,431 nM
same,Kd,HSA,863 nM
same,Resistant to pH 7.4→5.5?,HSA,pH resistant binding to HSA down to pH 6.0
"FGF21-SABA1v1: fusion in which the SABA moiety is at the C-terminus of FGF21, SEQ ID NO: 171; 300 aa; DNA SEQ ID NO: 180 (protein) MPIPDSSPLLQFGGQVRQRYLYTDDAQQTEAHLEIREDGTVGGAADQSPESLLQLKALKPGVIQILGVKTSRFLCQRPDGALYGSLHFDPEACSFRELLLEDGYNVYQSEAHGLPLHLPGNKSPHRDPAPRGPARFLPLPGLPPALPEPPGILAPQPPDVGSSDPLSMVGPSQGRSPSYASGGSGSGSGSGSGSGSGVSDVPRDLEVVAATPTSLLISWHSYYEQNSYYRITYGETGGNSPVQEFTVPYSQTTATISGLKPGVDYTITVYAVYGSKYYYPISINYRTEIDKPSQHHHHHH",increase of t1/2 compared to His-tagged FGF21,[3],~27 fold
same,"CL (total body plasma clearance, CLTp)",[3]; [4],1.2 mL/h/kg
same,T½ (terminal half-life),[3]; [4],50.3 h
same,"Vdss (steady-state volume of distribution, Vss)",[3]; [4],0.06 L/kg
"SABA1: serum albumin binding 10Fn3 core sequence, SEQ ID NO: 4; in Table 5 stands for SABA1.1 (protein) EVVAATPTSLLISWHSYYEQNSYYRITYGETGGNSPVQEFTVPYSQTTATISGLKPGVDYTITVYAVYGSKYYYPISINYRT",Kd,RhSA,778 nM
same,Kd,HSA,47.2 nM
"SABA1-APPv7: SEQ ID NO: 364; SABA1.7-(ED)5G-Cys conjugated to Maleimide-PEG20-PP-CONH2 (conjugate, Maleimide-PEG20-PP-CONH2 conjugated via Cys) MGVSDVPRDLEVVAATPTSLLISWHSYYEQNSYYRITYGETGGNSPVQEFTVPYSQTTATISGLKPGVDYTITVYAVYGSKYYYPISINYRTEIEDEDEDEDEDGC",Koff (1/s),Human serum albumin,1.42 10^−4 1/s
same,Kon (1/Ms),Human serum albumin,7.88 10^3 1/Ms
"SABA1-PYYv7: SEQ ID NO: 344; SABA1.7-(ED)5G-Cys conjugated to Maleimide-PEG20-PYY-CONH2 (conjugate, Maleimide-PEG20-PYY-CONH2 conjugated via Cys) MGVSDVPRDLEVVAATPTSLLISWHSYYEQNSYYRITYGETGGNSPVQEFTVPYSQTTATISGLKPGVDYTITVYAVYGSKYYYPISINYRTEIEDEDEDEDEDGC",Koff (1/s),Human serum albumin,2.08 10^−4 1/s
same,Kon (1/Ms),Human serum albumin,9.29 10^3 1/Ms
